Measured values reported in patent US20180086823A1 (FRAUNHOFER GESELLSCHAFT ZUR FOERDERUNG DER ANGEWANDTEN …, published 2018).
Like-named read-outs stand apart in the source and are kept apart here.

What was measured:
[1] = target: T1, AMA-1 of Plasmodium falciparum strain 3D7, on parasites (schizonts/merozoites) (Plasmodium falciparum (strain 3D7), UniProt P22621 25-622); assay: cell-based or functional assay
T1 chain: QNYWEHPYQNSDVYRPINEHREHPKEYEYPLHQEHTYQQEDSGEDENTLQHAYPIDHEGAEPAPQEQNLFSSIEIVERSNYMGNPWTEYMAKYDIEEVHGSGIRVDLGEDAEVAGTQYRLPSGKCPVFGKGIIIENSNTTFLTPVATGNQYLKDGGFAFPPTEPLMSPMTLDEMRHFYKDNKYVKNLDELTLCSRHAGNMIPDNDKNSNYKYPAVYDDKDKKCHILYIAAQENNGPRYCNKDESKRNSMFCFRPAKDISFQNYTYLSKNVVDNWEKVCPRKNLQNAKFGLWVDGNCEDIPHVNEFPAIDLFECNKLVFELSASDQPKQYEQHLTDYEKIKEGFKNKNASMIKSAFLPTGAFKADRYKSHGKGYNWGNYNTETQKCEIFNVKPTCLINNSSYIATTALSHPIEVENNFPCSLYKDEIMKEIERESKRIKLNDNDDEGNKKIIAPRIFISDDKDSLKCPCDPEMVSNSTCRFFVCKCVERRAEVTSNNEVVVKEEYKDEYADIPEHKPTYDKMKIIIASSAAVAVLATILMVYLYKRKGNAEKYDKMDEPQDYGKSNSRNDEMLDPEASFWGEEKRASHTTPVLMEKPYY

[2] = target: AMA-1 of Plasmodium falciparum strain HB3, on parasites (Plasmodium falciparum (strain HB3)); assay: cell-based or functional assay
[3] = target: AMA-1 of Plasmodium falciparum strain FCR3, on parasites (Plasmodium falciparum (strain FCR3)); assay: cell-based or functional assay
[4] = target: AMA-1 of Plasmodium falciparum strain K1, on parasites (Plasmodium falciparum (strain K1)); assay: cell-based or functional assay
[5] = target: T1, AMA-1 of Plasmodium falciparum strain …; assay: cell-based or functional assay
[6] = target: T2, recombinant apical membrane antigen 1 (AMA-1) from Plasmodium falciparum 3D7, produced in Pichia pastoris, … (Plasmodium falciparum (strain 3D7), UniProt P22621 25-546); assay: SPR, Biacore T200, protein-A capture of the antibody, 25° C., 1:1 Langmuir fit
T2 construct: also called native target antigen AMA-1; recombinant AMA-1
T2 chain: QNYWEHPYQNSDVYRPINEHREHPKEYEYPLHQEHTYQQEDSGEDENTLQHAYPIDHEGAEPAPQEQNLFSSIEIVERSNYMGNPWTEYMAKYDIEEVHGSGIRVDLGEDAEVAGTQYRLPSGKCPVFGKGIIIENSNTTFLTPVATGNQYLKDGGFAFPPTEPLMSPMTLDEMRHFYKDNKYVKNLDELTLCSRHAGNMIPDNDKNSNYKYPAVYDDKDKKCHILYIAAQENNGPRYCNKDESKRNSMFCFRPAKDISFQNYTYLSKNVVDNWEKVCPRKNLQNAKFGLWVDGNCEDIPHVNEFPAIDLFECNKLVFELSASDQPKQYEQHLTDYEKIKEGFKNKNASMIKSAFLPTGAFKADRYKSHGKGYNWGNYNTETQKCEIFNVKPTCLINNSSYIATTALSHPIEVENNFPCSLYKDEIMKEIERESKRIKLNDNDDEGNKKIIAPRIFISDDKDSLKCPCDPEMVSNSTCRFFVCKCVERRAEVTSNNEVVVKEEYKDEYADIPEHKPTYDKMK
Description: All antibodies were diluted into running buffer to yield equivalent capture levels. The injection time was set to 180 s and dissociation was recorded for 600 s. The protein-A surface was regenerated by a 30 s pulse with 30 mM HCI. For the antibody buffer injections were used for double referencing. Values for the KD of the antibody were calculated according to the curve-fitting methodology for a simple binding model (1:1 Langmuir).

B1: huMAb-anti-AMA-1.1 (antibody, V domains shown)
VH: QVQLQESGPGLVKPSETLSLTCSVSGVSVSSTVFYWGWIRQSPGKGLEWIGSIYYSGSTYYNEALKSRLTLSVETSERQFSLRLSSVTAADTAVYYCARGAINFGGYSGPGTFYFDIWGQGTLITVSS
VL: DIQMTQSPSTLSASVGDRVTITCRASQSITTWLAWYQQKPGTAPKLLIYKASILETGVPSRFSGSGSGTDFTLTISSLQPDDFATYYCQQYSTHLFTFGPGTKVDIK
notes: also called recombinant human anti AMA-1 antibody
IC50 [µg/ml], growth inhibition assay (GIA), strain 3D7 [1]: 32 µg/mL | IC50 [µg/ml], growth inhibition assay (GIA), strain HB3 [2]: 115 µg/mL | IC50 [µg/ml], growth inhibition assay (GIA), strain FCR3 [3]: 230 µg/mL | IC50 [µg/ml], growth inhibition assay (GIA), strain K1 [4]: 113 µg/mL | IC50 [µg/ml], growth inhibition assay (GIA), strain 3D7 [5]: 32 µg/mL | Kd [6]: 188 pM | koff [6]: 0.000131 s⁻¹ | kon [6]: 698000 M⁻¹ s⁻¹
